Changes are numbered by the printed parent chain. Names may count otherwise.
B1: M-CSFM: 158 amino acid M-CSF with cysteine at position 31 replaced by serine (SEQ ID NO: 2) (protein)
chain: EEVSEYCSHMIGSGHLQSLQRLIDSQMETSSQITFEFVDQEQLKDPVCYLKKAFLLVQDIMEDTMRFRDNTPNAIAIVQLQELSLRLKSCFTKDYEEHDKACVRTFYETPLQLLEKVKNVFNETKNLLDKDWNIFSKNCNNSFAECSSQGHERQSEGS
B2: M-CSFC31S,M27R: M-CSF double mutant containing both C31S and M27R; monomeric, monospecific c-FMS antagonist (protein)
chain: B1 chain with M27R

Columns and labels:
[1] = tested on: human peripheral blood CD14+ monocytes differentiating to osteoclasts; assay: Osteoclast differentiation assay of human CD14+ monocytes (TRAP staining); assay type: cell-based; conditions: Example 14, CD14+ cells; for osteoclast formation: 50, 250, 1000 nM with M-CSFWT and RANKL
Description: Differentiation assay—BMMs and CD14+ cells were obtained and grown as described above. The plates containing the monocytes were washed with PBS; the cells were detached using a cell scraper for BMMs or Accutase (Biological industries, Israel) for CD14^+; and 2×10^4 BMMs or 1×10^4 CD14^+ cells were transferred to each well in a 96-well plate. Osteoclast differentiation was induced as described in the ‘phosphorylation assay’ section. To determine the influence of M-CSFC31S and the M-CSFC31S,M27R on osteoclast differentiation, the proteins were added to the differentiation medium (with M-CSF and RANKL) in different concentrations (50 nM, 1 μM and 5 μM for BMMs and 50 nM, 250 nM and 1 μM for CD14^+). To determine the influence of human M-CSFWT on the differentiation, it was added to the cells in different concentrations (50 nM 1 μM and 5 μM) without adding murine M-CSFWT. Once the cells were fully differentiated, they were fixed with 4% paraformaldehyde and stained using the tartrate-resistant acid phosphatase (TRAP) staining kit (Sigma-Aldrich, USA) according to the manufacturer's protocol. As the positive control, cells were incubated with M-CSF and RANKL without inhibitors, and the negative control was comprised of cells that were incubated in differentiation medium without RANKL. […] Cells in each image were counted in a double-blind manner, and the number of nuclei in the osteoclasts was determined using ImageJ software. For the positive control of BMMs, an average of 28.33 osteoclasts and 135 nuclei per well were counted. For CD14^+ positive control, the average numbers of osteoclasts and nuclei were 14.5 and 75, respectively, per well. The results for each parameter were normalized to the positive control values.
In light of the above-described decrease in phosphorylation, it was hypothesized that incubation of M-CSFC31S,M27R with differentiating monocytes would result in decreased formation of osteoclasts. To test this premise, either BMMs or CD14^+ cells were incubated with murine or human M-CSFWT (20 ng/ml), respectively, and murine RANKL (20 ng/ml) together with M-CSFC31S and M-CSFC31S,M27R at concentrations of 50 and 1000 and 5000 nM for BMMs and 50, 250, 1000 nM for CD 14^+ cells. The cells were allowed to differentiate for 96 h or until they reached full differentiation. In BMMs incubated with M-CSFC31S, osteoclasts formed rapidly, and therefore they differentiated only for 72 h. Then, the cells were stained with a tartrate-resistant acid phosphatase (TRAP) staining kit (FIGS. 19A, B). […] This inhibition of differentiation behavior was observed also for M-CSFWT.

[2] = molecular target: human c-FMS (Homo sapiens, UniProt P07333); assay: c-FMS phosphorylation assay in CD14+ monocytes (western blot); assay type: cell-based; set-up: host or cells: human peripheral blood CD14+ monocytes; conditions: CD14+ cells; 0.5 nM human M-CSFWT + 100 nM variant
Sequence of human c-FMS (P07333 20-972): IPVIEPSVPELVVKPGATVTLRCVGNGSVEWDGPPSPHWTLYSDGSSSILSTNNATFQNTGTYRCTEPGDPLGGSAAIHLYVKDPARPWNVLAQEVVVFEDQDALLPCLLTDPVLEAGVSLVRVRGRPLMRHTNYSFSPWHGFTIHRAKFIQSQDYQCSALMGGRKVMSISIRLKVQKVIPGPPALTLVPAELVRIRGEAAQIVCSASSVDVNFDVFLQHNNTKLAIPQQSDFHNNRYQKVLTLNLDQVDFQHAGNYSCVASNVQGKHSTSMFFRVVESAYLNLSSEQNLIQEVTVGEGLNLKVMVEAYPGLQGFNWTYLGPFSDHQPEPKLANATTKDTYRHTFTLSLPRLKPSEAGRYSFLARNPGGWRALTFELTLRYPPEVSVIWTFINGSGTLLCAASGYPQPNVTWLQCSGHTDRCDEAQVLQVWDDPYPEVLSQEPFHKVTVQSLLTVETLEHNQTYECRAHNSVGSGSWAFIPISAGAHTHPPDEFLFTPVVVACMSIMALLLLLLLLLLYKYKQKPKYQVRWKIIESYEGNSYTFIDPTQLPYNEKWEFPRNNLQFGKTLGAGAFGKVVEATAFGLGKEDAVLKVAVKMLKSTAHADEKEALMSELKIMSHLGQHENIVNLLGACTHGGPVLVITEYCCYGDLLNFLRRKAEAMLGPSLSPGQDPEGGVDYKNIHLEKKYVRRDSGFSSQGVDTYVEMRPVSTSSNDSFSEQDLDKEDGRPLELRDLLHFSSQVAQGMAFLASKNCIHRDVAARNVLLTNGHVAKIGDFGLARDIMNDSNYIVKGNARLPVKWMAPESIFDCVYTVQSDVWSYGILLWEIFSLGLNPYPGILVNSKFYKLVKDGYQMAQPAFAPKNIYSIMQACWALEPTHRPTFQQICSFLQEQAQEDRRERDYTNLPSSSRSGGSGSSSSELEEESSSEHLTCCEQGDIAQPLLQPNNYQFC
Procedure: Phosphorylation assay—The experiment was performed on two cell types, BMMs and human peripheral blood CD14^+ monocytes, as follows: (i) BMMs from wild-type C57BL6 mice were purified by flushing the bone marrow from the femur and tibia as previously described (Levaot, N., Simoncic, P. D., Dimitriou, I.D., Scoffer, A., La Rose, J., Ng, A. H. M. et al. (2011) J. Clin. Invest. 121, 3244-3257). The cells were treated with ACK red cells lysis buffer (ThermoFisher Scientific, USA) and grown in complete α-MEM growth medium (Sigma-Aldrich, USA) containing 10% fetal bovine serum (FBS) (selected to not contain LPS to prevent macrophage differentiation), penicillin, streptomycin and L-glutamine. Recombinant murine M-CSF was added at a concentration of 40 ng/ml (Peprotech, Israel) for three days at 37° C. to induce adhesion and proliferation of monocytes. Then, 7×10^5 cells were transferred into a 6-well plate with complete α-MEM and 20 ng/ml murine M-CSF and RANKL (R&D Systems, USA) for 48 h. (ii) CD 14^+ monocytes (Lonza, Switzerland) were grown in complete α-MEM medium for five days in the presence of human M-CSF (20 ng/mL). […] The images were quantified using ImageJ. The quantified intensity values of the phosphorylated c-FMS for each sample were divided by the total c-FMS intensity, and then by the β-actin expression intensity. […]

Molecule | number of osteoclasts and number of nuclei [1] | osteoclast formation [1] | c-FMS phosphorylation level [2]
B1 | the opposite result | highly accelerated in the two lower concentrations | acted as an agonist, inducing phosphorylation
B2 | a decrease in both parameters, in a dose-dependent manner | significantly inhibited, in a dose-dependent manner | decreased phosphorylation of c-FMS
